The supplement of paper PMC11865577

Key:
Assay in all cases: pull-down binding Z-score (relative to library population); higher = stronger binding
[1] = tested on: TO-N3-2 (biotin conjugate); settings: RNA library: Library-2
Procedure, shortened: (§1)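 Biotin-conjugated small molecule (100 pmol) on streptavidin beads was incubated with 1 μg of heat-folded Cy5- or Cy3-end-labelled RNA library in phosphate/NaCl/KCl buffer at 25 °C for 60 min. Following three washes, RNA was eluted with hot SDS and hybridised at 55.5 °C for 20 h to a DNA barcode microarray. The binding value is a Z-score computed from the library mean and standard deviation, after subtraction of beads without compound and averaging of barcoded replicate probes with the highest and lowest excluded.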

[2] = tested on: G-clamp-N3 (biotin conjugate); settings: RNA library: Library-1 (pre-miRNA loops + repeats)
Procedure, shortened: as §1

[3] = tested on: TO-N3 (biotin conjugate); settings: RNA library: Library-2
Procedure, shortened: as §1

[4] = tested on: TO-3-N3-2 (biotin conjugate); settings: RNA library: Library-2
Procedure, shortened: as §1

[5] = tested on: TO-3-N3 (biotin conjugate); settings: RNA library: Library-2
Procedure, shortened: as §1

| Sequence | pull-down binding Z-score [1] | pull-down binding Z-score [2] | pull-down binding Z-score [3] | pull-down binding Z-score [4] | pull-down binding Z-score [5] |
| --- | --- | --- | --- | --- | --- |
| AGAGGCUGUGGGCAGGGGGAGAUGUGAAGGAAAGAACUAGGACCCAUUCAUCCACU [hsa-mir-6807] | 2.79 | 0.739 | 2.97 | 2.57 | 2.51 |
| AGAGUCCUGUUGUUGUAAGAUAGUGUCU [hsa-mir-550a-3] | -0.0681 | 0.441 | -0.515 | -0.265 | -0.56 |
| AGAUAGUGAAGUAGAUUAGCAUCUACU [hsa-mir-18a] | 0.0251 | -0.59 | -0.387 | 0.201 | -0.484 |
| AGAUAUAUAUAUACCUCAUAUGUAUAUGGUAUAC [hsa-mir-4777] | -0.944 | -1.5 | -1.37 | -0.53 | -1.2 |
| AGAUCACUUUUCUGCACUGGACAGUGAUCU [hsa-mir-3686] | -0.833 | -0.182 | -0.904 | -0.462 | -0.65 |
| AGAUCCCCUGUUAGAGACGGGCC [hsa-mir-6840] | 0.991 | -1.25 | 0.562 | 0.351 | 0.114 |
| AGAUCCUGUCUUUCGUAAUCAGCAGCU [hsa-mir-222] | 0.228 | -0.246 | 0.344 | 0.00116 | 0.279 |
| AGAUCUAUGUCAUAUAUACAGAUAU [hsa-mir-3924] | -0.356 | -0.51 | 0.742 | 0.268 | 0.902 |
| AGAUCUGUCUCUGAUUGUUUCCAAGAUCU [hsa-mir-6888] | 0.0817 | -0.781 | 0.136 | 0.0544 | 0.132 |
| AGAUGAAAUGCCUUUGAUUU [hsa-mir-3658] | -0.505 | -1.49 | -0.715 | -0.388 | -0.497 |
| AGAUGAGGGUGUCGGAUCAACU [hsa-mir-193a] | 0.801 | 1.51 | 0.579 | 0.248 | 0.135 |
| AGAUGAGUUUAUGUUUUAUCCAACU [hsa-mir-193b] | -0.135 | -1.8 | -0.416 | -0.228 | -0.608 |
| AGAUGUGUUUCCAUUCCACUAUCAUAAU [hsa-mir-365a] | -0.292 | -0.718 | -0.0846 | -0.128 | -0.141 |
| AGCAAGGUGCGUCGUAUCUUGCU [hsa-mir-4804] | -0.798 | 0.816 | -0.702 | -0.581 | -0.499 |
| AGCACUUUCUGUUGUCUGAAAGAAAAGAAAGUGCU [hsa-mir-516a-1_516a-2] | -0.0183 | 1.47 | 0.686 | 0.0524 | 0.399 |
| AGCACUUUCUGUUUUGUGAAAGAAAAGAAAGUGCU [hsa-mir-516b-1] | -1.2 | -0.472 | -1.32 | -0.64 | -0.893 |
| AGCACUUUGUGUUUUGUGAAAGAAAGUGCU [hsa-mir-516b-2] | -0.576 | 2.82 | -0.882 | -0.0767 | -0.647 |
| AGCAGUACCAGACGGUUCUGUGG [hsa-mir-3198-1] | 0.525 | -0.487 | 0.0664 | -0.0913 | -0.321 |
